Positions count from the first letter of the chain named.
What was measured:
Flag-Aub WT = molecular target: T1, Flag-Aub WT (Drosophila melanogaster, UniProt O76922 1-866); assay: UV crosslinking
T1 sequence: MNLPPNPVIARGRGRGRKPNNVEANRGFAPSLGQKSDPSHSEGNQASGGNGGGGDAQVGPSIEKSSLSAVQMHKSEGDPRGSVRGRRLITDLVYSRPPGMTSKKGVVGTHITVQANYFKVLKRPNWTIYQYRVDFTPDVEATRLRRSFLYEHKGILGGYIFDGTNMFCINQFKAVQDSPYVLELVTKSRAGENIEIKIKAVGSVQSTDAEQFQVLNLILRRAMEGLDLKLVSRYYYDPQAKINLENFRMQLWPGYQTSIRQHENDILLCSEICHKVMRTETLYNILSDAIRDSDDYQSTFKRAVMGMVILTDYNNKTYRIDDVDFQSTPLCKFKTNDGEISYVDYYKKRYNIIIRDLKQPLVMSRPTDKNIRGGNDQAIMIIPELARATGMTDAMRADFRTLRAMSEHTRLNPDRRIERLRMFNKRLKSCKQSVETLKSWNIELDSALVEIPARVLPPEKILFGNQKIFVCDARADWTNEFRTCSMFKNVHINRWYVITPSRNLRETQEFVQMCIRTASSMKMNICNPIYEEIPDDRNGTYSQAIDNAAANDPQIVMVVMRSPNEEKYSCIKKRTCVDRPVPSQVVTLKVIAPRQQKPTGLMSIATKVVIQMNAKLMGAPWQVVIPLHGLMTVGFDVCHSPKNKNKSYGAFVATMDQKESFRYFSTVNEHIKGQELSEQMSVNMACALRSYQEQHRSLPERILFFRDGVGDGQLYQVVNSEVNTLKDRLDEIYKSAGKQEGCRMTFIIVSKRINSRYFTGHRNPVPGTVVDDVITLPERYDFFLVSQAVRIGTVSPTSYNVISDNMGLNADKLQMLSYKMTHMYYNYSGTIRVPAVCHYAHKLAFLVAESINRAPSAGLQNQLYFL

Flag-Aub mutant (M) = molecular target: T2, Flag-Aub mutant (M) (Drosophila melanogaster, UniProt O76922 1-866, R11K;R13K;R15K;R17K); assay: UV crosslinking
T2 sequence: T1 sequence with R11K, R13K, R15K, R17K

Binder: UGACAUGAACACAGGUGCUCAGAUAGCUUU (ssRNA, 4-thio-uridine (s4U) at position 1) [synthetic piRNA with s4U at position 1]
- binding result (Flag-Aub WT): binds
- binding result (Flag-Aub mutant (M)): binds

Source: PMC2746449
